Assay results taken from publication PMC9832388, “A novel method for real-time analysis of the complement C3b:FH:FI complex reveals dominant negative CFI variants in age-related macular degeneration” (Frontiers in Immunology, 2022).

Biological target: C3b (UniProt P01024 23-667; P01024 749-1663)
Assay: cell-based or functional assay

C3b, sequence (P01024 23-667, chain 1 of 2): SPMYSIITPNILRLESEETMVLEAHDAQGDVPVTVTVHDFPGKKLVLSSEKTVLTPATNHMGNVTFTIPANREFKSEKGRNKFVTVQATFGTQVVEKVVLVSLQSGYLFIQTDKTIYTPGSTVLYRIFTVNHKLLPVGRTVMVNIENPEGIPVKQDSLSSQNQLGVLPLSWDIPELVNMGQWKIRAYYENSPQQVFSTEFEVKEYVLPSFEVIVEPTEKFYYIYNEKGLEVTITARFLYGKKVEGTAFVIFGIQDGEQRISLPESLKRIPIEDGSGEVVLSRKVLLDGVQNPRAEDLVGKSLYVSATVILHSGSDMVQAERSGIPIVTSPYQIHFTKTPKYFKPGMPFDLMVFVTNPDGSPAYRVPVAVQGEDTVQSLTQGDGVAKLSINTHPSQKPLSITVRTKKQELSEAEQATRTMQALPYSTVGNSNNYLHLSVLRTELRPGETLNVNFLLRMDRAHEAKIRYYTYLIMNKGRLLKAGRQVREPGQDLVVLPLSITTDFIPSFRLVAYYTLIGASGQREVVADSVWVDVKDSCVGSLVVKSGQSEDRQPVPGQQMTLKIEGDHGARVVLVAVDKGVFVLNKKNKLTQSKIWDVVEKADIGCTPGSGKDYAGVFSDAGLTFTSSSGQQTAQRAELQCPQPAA
C3b, sequence (P01024 749-1663, chain 2 of 2): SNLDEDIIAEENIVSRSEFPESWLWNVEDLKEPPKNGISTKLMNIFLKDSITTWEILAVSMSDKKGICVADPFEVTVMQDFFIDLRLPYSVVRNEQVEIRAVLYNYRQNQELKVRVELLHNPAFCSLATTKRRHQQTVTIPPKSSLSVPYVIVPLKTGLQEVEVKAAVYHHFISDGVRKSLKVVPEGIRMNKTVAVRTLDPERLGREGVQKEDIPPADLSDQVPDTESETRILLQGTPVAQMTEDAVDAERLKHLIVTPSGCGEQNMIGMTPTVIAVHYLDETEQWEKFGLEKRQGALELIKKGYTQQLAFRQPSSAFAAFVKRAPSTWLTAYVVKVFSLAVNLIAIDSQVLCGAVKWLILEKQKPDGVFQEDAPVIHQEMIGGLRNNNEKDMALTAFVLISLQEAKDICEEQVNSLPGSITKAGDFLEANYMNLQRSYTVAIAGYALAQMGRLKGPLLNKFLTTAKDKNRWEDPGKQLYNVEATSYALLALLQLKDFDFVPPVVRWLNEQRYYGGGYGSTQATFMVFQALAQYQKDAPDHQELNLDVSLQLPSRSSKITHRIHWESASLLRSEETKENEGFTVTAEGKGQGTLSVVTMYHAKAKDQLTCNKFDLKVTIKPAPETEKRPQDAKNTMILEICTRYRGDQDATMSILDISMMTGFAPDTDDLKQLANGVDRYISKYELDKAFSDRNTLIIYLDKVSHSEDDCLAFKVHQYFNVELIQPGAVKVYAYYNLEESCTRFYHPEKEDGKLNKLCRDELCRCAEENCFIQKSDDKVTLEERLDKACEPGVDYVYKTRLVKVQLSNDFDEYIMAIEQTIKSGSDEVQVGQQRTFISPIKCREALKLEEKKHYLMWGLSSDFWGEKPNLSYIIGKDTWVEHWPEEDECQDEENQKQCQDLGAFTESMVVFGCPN

B1: I340T FI (enzyme, human)
chain 1: KVTYTSQEDLVEKKCLAKKYTHLSCDKVFCQPWQRCIEGTCVCKLPYQCPKNGTAVCATNRRSFPTYCQQKSLECLHPGTKFLNNGTCTAEGKFSVSLKHGNTDSEGIVEVKLVDQDKTMFICKSSWSMREANVACLDLGFQQGADTQRRFKLSDLSINSTECLHVHCRGLETSLAECTFTKRRTMGYQDFADVVCYTQKADSPMDDFFQCVNGKYISQMKACDGINDCGDQSDELCCKACQGKGFHCKSGVCIPSQYQCNGEVDCITGEDEVGCAGFASVTQEETEILTADMDAERRRIKSLLPKLSCGVKNRMHI
chain 2: TVGGKRAQLGDLPWQVAIKDASGITCGGIYIGGCWILTAAHCLRASKTHRYQIWTTVVDWIHPDLKRIVIEYVDRIIFHENYNAGTYQNDIALIEMKKDGNKKDCELPRSIPACVPWSPYLFQPNDTCIVSGWGREKDNERVFSLQWGEVKLISNCSKFYGNRFYEKEMECAGTYDGSIDACKGDSGGPLVCMDANNVTYVWGVVSWGENCGKPEFPGVYTKVANYFDWISYHVGRPFISQYNV
- inhibition of the activity of WT FI in a fluid phase CA assay with increasing I340T FI (~25% at equimolar, 30% at 2-fold molar): 30%
